Test results published in US20180188257A1 (UNIVERSITY OF ROCHESTER, published 2018).

Tests used:
p53 = target: T1, p53 (UniProt P04637 1-393, limits assumed); experiment: co-immunoprecipitation from cell lysate with septin-2 pull-down antibody, western blot
T1 construct: Endogenous protein in cell lysates
Experimental: (§1) For immunoprecipitation studies, two million SKOV3 WT and OVCAR-8 cells were seeded onto 100 mm dishes (Corning) and cultured to 80% confluency in complete DMEM media. Cells were rinsed in DPBS (Gibco), lysed, and quantified using Bradford assay. Lysates were adjusted to 1 μg/μl total protein concentration, with 500 μl lysate used for each IP reaction. Identical samples were prepared for pull-down antibody (Septin-2 or HE4) and isotype-matched IgG control (#3900, Cell Signaling), with antibody concentration identical at 40 ng/μl. Further processing and PAGE analysis of samples was conducted to resolve the bands. The resulting membranes were probed for HE4 or Septin-2, p21 or P53, B-tubulin and other proteins of interest.

β-tubulin = target: T2, β-tubulin (UniProt P07437 1-444); experiment: as above
T2 construct: Endogenous protein in cell lysates; also called B-tubulin
T2 sequence (P07437 whole entry): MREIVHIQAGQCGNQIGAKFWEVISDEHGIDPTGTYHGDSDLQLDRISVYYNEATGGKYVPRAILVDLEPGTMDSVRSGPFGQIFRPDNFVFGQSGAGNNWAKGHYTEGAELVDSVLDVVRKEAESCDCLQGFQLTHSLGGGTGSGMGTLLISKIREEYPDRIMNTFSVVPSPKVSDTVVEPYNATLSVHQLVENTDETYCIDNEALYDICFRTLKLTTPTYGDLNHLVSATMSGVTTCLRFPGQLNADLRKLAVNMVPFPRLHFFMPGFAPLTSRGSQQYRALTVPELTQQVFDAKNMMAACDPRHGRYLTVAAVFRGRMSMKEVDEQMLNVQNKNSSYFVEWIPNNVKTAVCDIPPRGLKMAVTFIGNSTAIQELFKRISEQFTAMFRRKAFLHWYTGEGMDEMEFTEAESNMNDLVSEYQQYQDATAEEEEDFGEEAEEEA
Experimental: as §1

T1 sequence (P04637 whole entry): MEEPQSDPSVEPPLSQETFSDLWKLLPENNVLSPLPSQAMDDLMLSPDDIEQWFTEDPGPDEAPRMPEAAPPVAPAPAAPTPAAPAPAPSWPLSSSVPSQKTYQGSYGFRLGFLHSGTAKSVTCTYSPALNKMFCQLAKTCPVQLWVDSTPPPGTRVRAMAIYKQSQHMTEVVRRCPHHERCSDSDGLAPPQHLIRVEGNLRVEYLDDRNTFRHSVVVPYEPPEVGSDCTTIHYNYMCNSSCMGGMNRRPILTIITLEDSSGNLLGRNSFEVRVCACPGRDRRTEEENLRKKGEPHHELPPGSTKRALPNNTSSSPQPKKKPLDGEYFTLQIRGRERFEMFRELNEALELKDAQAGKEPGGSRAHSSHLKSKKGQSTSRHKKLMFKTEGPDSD

B1: septin-2 (other)
chain: MSKQQPTQFINPETPGYVGFANLPNQVHRKSVKKGFEFTLMVVGESGLGKSTLINSLFLTDLYPERVIPGAAEKIERTVQIEASTVEIEERGVKLRLTVVDTPGYGDAINCRDCFKTIISYIDEQFERYLHDESGLNRRHIIDNRVHCCFYFISPFGHGLKPLDVAFMKAIHNKVNIVPVIAKADTLTLKERERLKKRILDEIEEHNIKIYHLPDAESDEDEDFKEQTRLLKASIPFSVVGSNQLIEAKGKKVRGRLYPWGVVEVENPEHNDFLKLRTMLITHMQDLQEVTQDLHYENFRSERLKRGGRKVENEDMNKDQILLEKEAELRRMQEMIARMQAQMQMQMQGGDGDGGALGHHV
notes: Endogenous protein in lysates of the ovarian cancer cell lines SKOV3 WT and OVCAR-8, pulled down with a septin-2 antibody
B1: no binding (p53); no binding (β-tubulin).
